Laboratory results: patent US20100260776A1

Target: KDR (VEGF receptor, flk-1/KDR, VEGFR2) (human) (UniProt P35968)
Test: in vitro receptor saturation; format not stated

For IMC-1C11 (antibody), the concentration at 50% saturation of VEGF receptors was 0.2 µg/mL and the concentration at 100% saturation of VEGF receptors was 3 µg/mL.
